According to patent US20260250421A1 (BIOCYTOGEN PHARMACEUTICALS BEIJING, published 2026):

Columns and labels:
[1] = biological target: T1, His-tagged cynomolgus monkey PTK7 protein (cynomolgus monkey, UniProt A0A2K5VNI5 39-712); assay: SPR Biacore 8K, Ab on Protein A chip
T1 construct: Bought protein; also called cPTK7-His; ACRO Biosystems Cat# PT7-C52H3; not shown: His tag
T1 sequence: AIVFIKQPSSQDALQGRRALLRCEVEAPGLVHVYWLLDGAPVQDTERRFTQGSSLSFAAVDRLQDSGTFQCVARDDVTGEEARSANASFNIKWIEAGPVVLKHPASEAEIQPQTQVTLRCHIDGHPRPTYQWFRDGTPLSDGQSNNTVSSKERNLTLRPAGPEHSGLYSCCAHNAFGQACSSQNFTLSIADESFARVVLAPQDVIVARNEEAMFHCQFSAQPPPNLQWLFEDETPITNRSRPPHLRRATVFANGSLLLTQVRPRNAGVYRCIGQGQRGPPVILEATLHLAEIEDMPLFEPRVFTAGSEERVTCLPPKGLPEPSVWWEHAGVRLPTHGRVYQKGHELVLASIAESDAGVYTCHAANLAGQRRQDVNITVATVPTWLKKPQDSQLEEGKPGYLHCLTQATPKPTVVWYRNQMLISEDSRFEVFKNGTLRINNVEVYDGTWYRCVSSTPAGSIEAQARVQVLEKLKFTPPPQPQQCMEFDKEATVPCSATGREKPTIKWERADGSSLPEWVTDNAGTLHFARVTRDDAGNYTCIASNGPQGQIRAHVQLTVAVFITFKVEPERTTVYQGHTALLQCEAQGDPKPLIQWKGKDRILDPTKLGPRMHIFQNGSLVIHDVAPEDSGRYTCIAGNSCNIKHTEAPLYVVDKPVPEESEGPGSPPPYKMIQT
Protocol: (§1) The affinity of the anti-PTK7/TROP2 bispecific antibodies to His-tagged human TROP2 protein (hTROP2-His, ACRO Biosystems Inc., Cat #: TR2-H5223), His-tagged […] monkey TROP2 protein (cTROP2-His, ACRO Biosystems Inc., Cat #: Cat: TR2-R52H3), His-tagged dog TROP2 protein (dTROP2-His, ACRO Biosystems Inc., Cat #: TR2-C52H4), hPTK7-His, cPTK7-His and dPTK7-His were measured by surface plasmon resonance (SPR) using Biacore™ (Biacore, INC, Piscataway N.J.) 8K biosensor equipped with pre-immobilized Protein A sensor chips.

[2] = biological target: T2, His-tagged human PTK7 protein (human, UniProt Q13308 31-704); assay: SPR Biacore 8K, Ab on Protein A chip
T2 construct: Bought protein; also called hPTK7-His; not shown: His tag
T2 sequence: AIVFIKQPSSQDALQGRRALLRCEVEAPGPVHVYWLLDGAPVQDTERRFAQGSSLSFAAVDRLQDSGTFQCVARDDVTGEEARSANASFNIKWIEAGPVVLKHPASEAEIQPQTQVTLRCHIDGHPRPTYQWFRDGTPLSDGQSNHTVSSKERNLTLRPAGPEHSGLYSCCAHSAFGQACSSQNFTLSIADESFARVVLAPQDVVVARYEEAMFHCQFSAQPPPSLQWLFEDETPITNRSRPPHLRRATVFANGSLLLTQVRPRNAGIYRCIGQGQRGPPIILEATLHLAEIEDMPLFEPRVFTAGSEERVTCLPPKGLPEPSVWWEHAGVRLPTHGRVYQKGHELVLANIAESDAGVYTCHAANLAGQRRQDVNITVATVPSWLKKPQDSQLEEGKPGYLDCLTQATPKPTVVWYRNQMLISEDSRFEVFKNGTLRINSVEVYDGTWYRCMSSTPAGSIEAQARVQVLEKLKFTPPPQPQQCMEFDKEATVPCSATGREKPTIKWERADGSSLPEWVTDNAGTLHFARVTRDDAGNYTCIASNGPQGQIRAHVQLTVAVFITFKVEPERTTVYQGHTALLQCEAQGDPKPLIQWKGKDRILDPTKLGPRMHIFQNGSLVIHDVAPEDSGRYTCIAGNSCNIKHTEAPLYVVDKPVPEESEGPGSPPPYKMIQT
Protocol: as §1

Kd [1]: 13.1 nM | koff [1]: 0.00167 s⁻¹ | kon [1]: 127000 M⁻¹ s⁻¹ | Kd [2]: 9.79 nM | koff [2]: 0.00125 s⁻¹ | kon [2]: 128000 M⁻¹ s⁻¹
B1: 3C4-18E9 (bispecific antibody, human IgG1, V domains shown)
VH 1: QVQLEQSRAEVKKPGESLRISCKGSGYSFTSYWISWVRQMPGKGLEWMGRIDPSDSYTNYNPSFQGHVTISADKSISTAYLQWSSLKASDTAMYYCARRDGSYFDFDYWGQGTLVTVSS
VH 2: QLQLQQSGPGLLKPSETLSLTCTVSGGSISSSYYFWGWIRQPPGKGLEWIGAIYYIGNTHYNPSLKSRVTISIDTSKNQFSLNLNSVTAADTAIYYCARYEDTWNWFDPWGQGTLVTVSS
VL: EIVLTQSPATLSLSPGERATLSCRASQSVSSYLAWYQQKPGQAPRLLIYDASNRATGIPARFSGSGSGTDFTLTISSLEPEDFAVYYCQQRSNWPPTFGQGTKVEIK
notes: which arm carries the knob is stated only for 3C4-6F7; also called anti-PTK7/TROP2 bispecific antibody 3C4-18E9
